Data on twelve molecules can be found in publication PMC11446282.

To fix the notation:
B1: ZDS1 L868: ZDS1, L868 to alanine (protein, UniProt P50111 1-915, looked up, variant L868A)
Protein ZDS1: MSNRDNESMLRTTSSDKAIASQRDKRKSEVLIAAQSLDNEIRSVKNLKRLSIGSMDLLIDPELDIKFGGESSGRRSWSGTTSSSASMPSDTTTVNNTRYSDPTPLENLHGRGNSGIESSNKTKQGNYLGIKKGVHSPSRKLNANVLKKNLLWVPANQHPNVKPDNFLELVQDTLQNIQLSDNGEDNDGNSNENNDIEDNGEDKESQSYENKENNTINLNRGLSRHGNASLIRRPSTLRRSYTEFDDNEDDDNKGDSASETVNKVEERISKIKERPVSLRDITEELTKISNSAGLTDNDAITLARTLSMAGSYSDKKDQPQPEGHYDEGDIGFSTSQANTLDDGEFASNMPINNTMTWPERSSLRRSRFNTYRIRSQEQEKEVEQSVDEMKNDDEERLKLTKNTIKVEIDPHKSPFRQQDEDSENMSSPGSIGDFQDIYNHYRQSSGEWEQEMGIEKEAEEVPVKVRNDTVEQDLELREGTTDMVKPSATDDNKETKRHRRRNGWTWLNNKMSREDDNEENQGDDENEENVDSQRMELDNSKKHYISLFNGGEKTEVSNKEEMNNSSTSTATSQTRQKIEKTFANLFRRKPHHKHDASSSPSSSPSSSPSIPNNDAVHVRVRKSKKLGNKSGREPVEPIVLRNRPRPHRHHHSRHGSQKISVKTLKDSQPQQQIPLQPQLEGAIEIEKKEESDSESLPQLQPAVSVSSTKSNSRDREEEEAKKKNKKRSNTTEISNQQHSKHVQKENTDEQKAQLQAPAQEQVQTSVPVQASAPVQNSAPVQTSAPVEASAQTQAPAAPPLKHTSILPPRKLTFADVKKPDKPNSPVQFTDSAFGFPLPLLTVSTVIMFDHRLPINVERAIYRLSHLKASNSKRGLREQVLLSNFMYAYLNLVNHTLYMEQVAHDKEQQQQQQQQP
B2: ZDS1 E877: ZDS1, E877 to alanine (protein, UniProt P50111 1-915, looked up, variant E877A)
Protein ZDS1: B1 Protein ZDS1 with A868L, E877A
B3: ZDS1 Q878: ZDS1, Q878 to alanine (protein, UniProt P50111 1-915, looked up, variant Q878A)
Protein ZDS1: B1 Protein ZDS1 with A868L, Q878A
B4: ZDS1 S869: ZDS1, S869 to alanine (protein, UniProt P50111 1-915, looked up, variant S869A)
Protein ZDS1: B1 Protein ZDS1 with A868L, S869A
B5: ZDS1 K872: ZDS1, K872 to alanine (protein, UniProt P50111 1-915, looked up, variant K872A)
Protein ZDS1: B1 Protein ZDS1 with A868L, K872A
B6: ZDS1 N870: ZDS1, N870 to alanine (protein, UniProt P50111 1-915, looked up, variant N870A)
Protein ZDS1: B1 Protein ZDS1 with A868L, N870A
B7: ZDS1 R873: ZDS1, R873 to alanine (protein, UniProt P50111 1-915, looked up, variant R873A)
Protein ZDS1: B1 Protein ZDS1 with A868L, R873A
B8: ZDS1 R876: ZDS1, R876 to alanine (protein, UniProt P50111 1-915, looked up, variant R876A)
Protein ZDS1: B1 Protein ZDS1 with A868L, R876A
B9: ZDS1 L875: ZDS1, L875 to alanine (protein, UniProt P50111 1-915, looked up, variant L875A)
Protein ZDS1: B1 Protein ZDS1 with A868L, L875A
B10: ZDS1 V879: ZDS1, V879 to alanine (protein, UniProt P50111 1-915, looked up, variant V879A)
Protein ZDS1: B1 Protein ZDS1 with A868L, V879A
B11: ZDS1 G874: ZDS1, G874 to alanine (protein, UniProt P50111 1-915, looked up, variant G874A)
Protein ZDS1: B1 Protein ZDS1 with A868L, G874A
B12: ZDS1 S871: ZDS1, S871 to alanine (protein, UniProt P50111 1-915, looked up, variant S871A)
Protein ZDS1: B1 Protein ZDS1 with A868L, S871A

Changes are numbered by the printed parent chain.

For the experiment, the system named is PP2A-B55α. In words: Single alanine mutational scan, YFP-tagged interactors immunoprecipitated from HeLa cells, Western blot. It is filed as binding, human. As to conditions: single alanine mutant of YFP-tagged ZDS1. (In general: A western blot detects proteins with antibodies after separation by electrophoresis.)
In the case of B1, the Experimental % binding is reported as 56%. Molecule B2 had an Experimental % binding of 0%. Molecule B3 registered an Experimental % binding of 13%. B4 registered an Experimental % binding of 77%. The molecule B5 returned an Experimental % binding of 23%. To B6 belongs 49%. To B7 belongs 15%. To B8 belongs 0%; to B9, 0%. As for B10, the Experimental % binding is 2%. In the case of B11 it was 80%; in that of B12, 102%.
